The record followed here is US20240002504A1 (AKESO BIOPHARMA, published 2024).

Assay [1] deals with T1, 293T-TIGIT cell membrane surface antigen TIGIT (human, UniProt Q495A1 22-244).
T1 construct: whole, on cells; also called cell membrane surface TIGIT
T1 sequence (looked up): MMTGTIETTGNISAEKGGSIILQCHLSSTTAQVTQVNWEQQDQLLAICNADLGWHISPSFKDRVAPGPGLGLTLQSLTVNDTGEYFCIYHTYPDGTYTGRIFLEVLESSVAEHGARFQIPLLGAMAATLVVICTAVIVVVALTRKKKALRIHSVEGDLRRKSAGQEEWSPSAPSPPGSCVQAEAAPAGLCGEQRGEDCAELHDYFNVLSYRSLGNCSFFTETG
Put plainly: FACS on 293T-TIGIT cells. How it is done: The cells were diluted, 300 thousand cells were added to each well of a transparent V-bottomed 96-well plate, and 200 μL of 1% PBSA was added to each tube. The mixtures were centrifuged for 5 min, and the supernatants were discarded. […] The mixtures were centrifuged for 5 min, and the supernatants were discarded. The plate was washed twice. […] 200 μL of PBSA was added to each tube. The mixtures were centrifuged for 5 min, and the supernatants were discarded. The cells were resuspended by adding 200 μL of PBSA, and the suspensions were transferred into flow cytometry tubes to measure the mean fluorescence intensity of the cells at each concentration by a flow cytometer.

The target of assay [2] is T2, human TIGIT-mFc (human, UniProt Q495A1 22-141, limits assumed).
T2 construct: the whole entry NP_776160.2 is named; also called antigen TIGIT-mFc; not shown: Fc protein fragment of a mouse IgG (mFc)
T2 sequence (looked up): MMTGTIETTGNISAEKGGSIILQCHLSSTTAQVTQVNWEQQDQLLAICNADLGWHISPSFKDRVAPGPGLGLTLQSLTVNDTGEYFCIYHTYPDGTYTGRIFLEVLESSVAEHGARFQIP
The assay is described as follows: ELISA, TIGIT-mFc captured on goat anti-mouse IgG Fc. How it is done:
(§1) Experimental steps: a microplate was coated with goat anti-mouse IgG Fc at 2 μg/mL, and incubated at 4° C. for 16 h. After incubation, the microplate coated with goat anti-mouse IgG Fc was washed once with PBST, and then blocked with a PBST solution containing 1% BSA as a microplate blocking solution for 2 h. After blocking, the microplate was washed 3 times with PBST. Then, 1 μg/mL antigen human TIGIT-mFc was added, and the plate was incubated at 37° C. for 30 min and then washed 3 times with PBST. The antibodies serially diluted with the PBST solution were added to the wells of the microplate. The microplate containing the test antibodies was incubated at 37° C. for 30 min, and then washed 3 times with PBST. After washing, HRP-labeled goat anti-human IgG Fc secondary antibody working solution diluted in a ratio of 1:5000 was added, and the microplate was incubated at 37° C. for 30 min. After incubation, the plate was washed 4 times with PBST, TMB (Neogen, 308177) was added for chromogenesis in the dark for 4 min, and then a stop solution was added to terminate the chromogenic reaction. The microplate was put into a microplate reader immediately, and the OD value of each well in the microplate was read at 450 nm. The data were analyzed and processed by SoftMax Pro 6.2.1.
(ELISA stands for enzyme-linked immunosorbent assay.)

Assay [3] addresses T2, human TIGIT-mFc. Described as above. How it is done: as §1
This is another data set of the same source.

For assay [4], the target named is T1, 293T-TIGIT cell membrane surface …. Put plainly: FACS competition vs CD155 (10 nM) on 293T-TIGIT cells. How it is done: (§2) The cells were diluted, 300 thousand cells were added to each well of a transparent V-bottomed 96-well plate, and 200 μL of 1% PBSA was added to each tube. The mixtures were centrifuged for 5 min, and the supernatants were discarded. […] The plate was incubated on ice for 30 min. […] 200 μL of 1% PBSA was then added to each tube. The mixtures were centrifuged for 5 […], and the supernatants were discarded. The plate was washed twice. APC goat anti-mouse IgG (minimal x-reactivity) antibody (diluted 300-fold with PBSA) was added to each sample, and the mixtures were incubated on ice in the dark for 40 min. 200 μL of PBSA was added to each tube. The mixtures were centrifuged for 5 min, and the supernatants were discarded. The cells were resuspended by adding 200 μL of PBSA, and the suspensions were transferred into flow cytometry tubes to measure the mean fluorescence intensity of the cells at each concentration by a flow cytometer.

For assay [5] the target is unchanged. The assay is described as follows: FACS competition vs CD112 (30 nM) on 293T-TIGIT cells. How it is done:
as §2

In assay [6] the target is T2, human TIGIT-mFc. The assay is described as follows: competition ELISA vs CD155-hFc-Biotin (1 ug/mL), coated TIGIT-mFc. How it is done:
(§3) Experimental steps: a microplate was coated with TIGIT-mFc at 2 μg/mL, and incubated at 4° C. overnight. After incubation, the antigen-coated microplate was rinsed once with PBST, and then blocked with a PBST solution containing 1% BSA as a microplate blocking solution for 2 h. After blocking, the microplate was washed 3 times with PBST. The antibodies serially diluted with the PBST solution was added to the microplate. […] The microplate was incubated at 37° C. for 30 min, and then washed 3 times with PBST. After washing, SA-HRP working solution diluted in a ratio of 1:4000 was added, and the microplate was incubated at 37° C. for 30 min. After incubation, the plate was washed 4 times with PBST, TMB (Neogen, 308177) was added for chromogenesis in the dark for 5 min, and then a stop solution was added to terminate the chromogenic reaction. The microplate was put into a microplate reader immediately, and the OD value of each well in the microplate was read at 450 nm. The data were analyzed and processed by SoftMax Pro 6.2.1.

The target of assay [7] is T2, human TIGIT-mFc. Described as above. How it is done: as §3
This is another data set of the same source.

Assay [8] addresses T2, human TIGIT-mFc. The assay is described as follows: BLI (Fortebio), TIGIT-mFc on AMC sensor, Ab 0.06-5 nM, 37 C, 1:1 fit. How it is done: The sample dilution buffer was PBS (0.02% Tween-20, 0.1% BSA, pH 7.4). TIGIT-mFc was immobilized on an AMC sensor at a concentration of 3 μg/mL for 50 s, and the sensor was equilibrated in the buffer for 60 s. The TIGIT-mFc immobilized on the sensor was allowed to bind to antibody at concentrations of 0.06-5 nM (three-fold dilutions) for 120 s, and the protein was dissociated in the buffer for 300 s. The sensor was regenerated with 10 mM glycine solution (pH=1.7). The detection temperature was 37° C., the detection frequency was 0.3 Hz, and the sample plate shaking rate was 1000 rpm. The data were analyzed by 1:1 model fitting to obtain affinity constants.

For assay [9], the target named is T2, human TIGIT-mFc. Put plainly: indirect ELISA screening with human TIGIT-mFc as antigen.

B1: RG6058 (antibody, V domains shown)
VH: EVQLQQSGPGLVKPSQTLSLTCAISGDSVSSNSAAWNWIRQSPSRGLEWLGKTYYRFKWYSDYAVSVKGRITINPDTSKNQFSLQLNSVTPEDTAVFYCTRESTTYDLLAGPFDYWGQGTLVTVSS
VL: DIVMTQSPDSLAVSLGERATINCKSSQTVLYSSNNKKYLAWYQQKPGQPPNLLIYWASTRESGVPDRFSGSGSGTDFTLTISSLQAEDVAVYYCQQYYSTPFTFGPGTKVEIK
The term EC50 denotes the concentration that produces a half-maximal response. Read a high EC50 as a need for much substance. As usually defined, the Kd is a measure of binding affinity in units of concentration. What is called koff is a measure of how fast the partners let go of each other. As a reminder, the kon is a measure of how fast the partners come together. Lower therefore signals slow association. As for B1, the EC50 in assay [1] stood at 1.26 nM; in assay [2], 0.036 nM; in assay [3] it was 0.039 nM; in [4], 1.21 nM; in [5] it was 1.22 nM; in assay [6], 0.254 nM. The concentration for a half-maximal effect (EC50) in assay [7] is 0.236 nM. The Kd in assay [8] was determined as 0.0316 nM. In addition, the “Maximum signal height of analyte” value in assay [8] turned out to be 0.16 nm. In addition, the “S E (kdis)” value in [8] worked out at 3.46e-05 s⁻¹. Besides, the “S E (kon)” value in assay [8] worked out at 184000 M⁻¹ s⁻¹. Further, the off-rate (koff) in assay [8] came out at 0.000144 s⁻¹. The molecule further displayed a kon in assay [8] of 4.56e+06 M⁻¹ s⁻¹.

B2: 26B12 (antibody, V domains shown)
VH: EVQLQESGPGLVKPSQSLSLTCTVTGHSFTSDYAWNWIRQFPGNRLEWMGYISYSDSTNYNPSLKSRISITRDTSKNQFFLQMNSVTTEDTATYYCARLDYGNYGGAMDYWGQGTSVTVSS
VL: DIVLTQSHEFMSTSLRDRVSITCKSSQHVSTAVAWYQQKPGQSPKLLIYSASYRYTGVPDRFTGSGSGTDFTFTISSVKAEDLAVYYCQQHYITPWTFGGGTKLEIK
notes: Murine hybridoma antibody; also called monoclonal antibody secreted by hybridoma cell line LT019
On to B2, for which the binding result in [9] is listed as “binds”.
